Molecular target: YAP (WW1+WW2) protein fragment, recombinant 104-amino acid polypeptide
Assay: ITC

fold increase of the interaction over the Smad1 peptide with only the PY motif: 2.5 fold
Substance: Smad1 peptide extended to include S206 and S214 (unphosphorylated) and the PY motif

— publication PMC2818353
